Patent US20250122299A1 (published 2025)

B1: H1_L1.71 (antibody, V domains shown)
VH: EVQLLESGGGLVQPGGSLRLSCAASGFTFSSYAMSWVRQAPGKGLEWVSTISGSGDSTYYADSVKGRFTISRDNSKNTLYLQMNSLRAEDTAVYYCAKSGPGLRQVGFDYWGQGTLVTVSS
VL: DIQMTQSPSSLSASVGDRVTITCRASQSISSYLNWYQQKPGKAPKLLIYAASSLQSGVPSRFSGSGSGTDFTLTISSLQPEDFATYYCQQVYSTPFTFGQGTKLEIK
B2: H1L1 (antibody, V domains shown)
VH: EVQLLESGGGLVQPGGSLRLSCAASGFTFSSYAMSWVRQAPGKGLEWVSTISGSGDSTYYADSVKGRFTISRDNSKNTLYLQMNSLRAEDTAVYYCAKSGPGLRQVGFDYWGQGTLVTVSS
VL: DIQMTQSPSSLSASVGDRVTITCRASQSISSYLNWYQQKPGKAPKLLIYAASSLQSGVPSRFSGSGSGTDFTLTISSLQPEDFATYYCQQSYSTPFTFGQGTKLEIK
B3: H1.1_L1 (antibody, V domains shown)
VH: EVQLLESGGGLVQPGGSLRLSCAASGFTFSSYYMSWVRQAPGKGLEWVSTISGSGDSTYYADSVKGRFTISRDNSKNTLYLQMNSLRAEDTAVYYCAKSGPGLRQVGFDYWGQGTLVTVSS
VL: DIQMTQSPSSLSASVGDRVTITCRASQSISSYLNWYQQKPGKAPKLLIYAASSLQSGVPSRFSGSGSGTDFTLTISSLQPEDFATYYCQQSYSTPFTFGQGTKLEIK
B4: H1.1_L1.71 (antibody, V domains shown)
VH: EVQLLESGGGLVQPGGSLRLSCAASGFTFSSYYMSWVRQAPGKGLEWVSTISGSGDSTYYADSVKGRFTISRDNSKNTLYLQMNSLRAEDTAVYYCAKSGPGLRQVGFDYWGQGTLVTVSS
VL: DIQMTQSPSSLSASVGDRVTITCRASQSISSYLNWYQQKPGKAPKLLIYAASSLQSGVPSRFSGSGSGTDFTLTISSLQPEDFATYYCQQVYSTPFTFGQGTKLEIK

What follows are binders tested against human CD28 (human, UniProt P10747 19-220) (assay: -; scFv VHVL, 1+1 Fab-scFv-Fc format).
B1 gave a Kd of 0.18 µM.
B2 showed a Kd of 1 µM.
Binder B3 has a Kd of 0.6 µM.
In the case of B4, the Kd is reported as 0.096 µM.
